Measurements as given in US7345022B2, “Anti-fibril peptides” (Board of Supervisors of Louisiana State University and …, priority 2002, dated 2008).
*1 amine or outer side, *2 acyl side, *3 side chain or, on linkers, in order; H or OH if unused. Where no end group is shown, it is not given here. [ ]: non-standard residue; d: D form. Dbzg = C-alpha,alpha-dibenzylglycine, O=C(C(Cc1ccccc1)(Cc1ccccc1)N[*:1])[*:2]; Dibg = C-alpha,alpha-diisobutylglycine, CC(C)CC(CC(C)C)(N[*:1])C(=O)[*:2]; Dpg = CCCC(N)(CCC)C(=O)O

Experiments:
[1] = prior pentapeptide inhibitors of Aβ1-40 fibril formation; cited from earlier work
[2] = system: PC-12 cells; settings: MTT, reported by Pallitto et al.; cited from earlier work
[3] = molecular target: Aβ1-40 (Homo sapiens, UniProt P05067); experiment: Interaction with Aβ1-40: aggregate and fibril formation (visual, scanning probe microscopy); type: biochemical; settings: for product of the interaction with Aβ1-40: preliminary studies
Aβ1-40, sequence (P05067 672-711 limits assumed): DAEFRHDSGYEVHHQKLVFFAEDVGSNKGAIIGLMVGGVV
Method: (3) AMY-2 self-aggregates at 50 μM. The interaction of β-Amyloid and AMY-2 is apparent visually. […] SPM images were taken of adsorbed peptide material on a hydrophilic surface (mica or muscovite). […] These non-fibrillar aggregates were ˜100 nm in height and appeared as clusters of aggregated peptide material. […] Another study to explore the later β-Amyloid aggregation (i.e., fibril formation) produced an image of elongated fibrils greater than 10 μm long and 8 nm high.

[4] = molecular target: T1, Aβ10-35 (Homo sapiens, UniProt P05067); experiment: Inhibition of Aβ10-35 aggregation on incubation in phosphate buffer; type: biochemical; settings: incubated with Aβ10-35 in phosphate buffer at 37° C.
T1 construct: incubated with the amyloidogenic peptide Aβ10-35 in phosphate buffer at 37° C
T1 sequence (P05067 681-706): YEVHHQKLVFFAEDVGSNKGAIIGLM
Method: (§1) wherein Dibg is C^α,α-diisobutylglycine; Dbzg is C^α,α-dibenzylglycine; and Dpg is C^α,α-dipropylglycine. The AMY-1 peptide inhibits aggregation at concentrations of ˜5 μM when incubated with the amyloidogenic peptide Aβ10-35 in phosphate buffer at 37° C., under conditions where the Aβ10-35 peptide alone would form amyloid fibrils. […] AMY-1 is also depicted in FIG. 3. FIG. 4 depicts the manner in which AMY-1 blocks further extension of a growing β-sheet formed from the Aβ peptide.

[5] = Self-aggregation of the peptide; type: physicochemical
Method: Other strategies have included combinatorial approaches to screen short pentapeptides with L- or D-amino acids to develop small, mostly hydrophobic, inhibitors of Aβ1-40 fibril formation. […] Thus, these peptides can themselves become part of high order aggregates.
as §1
(3) AMY-2 self-aggregates at 50 μM.

[6] = system: preformed β-amyloid fibrils; experiment: Dissolution of preformed fibrils (SPM and TEM); type: biochemical; settings: preliminary
Method: Preliminary experiments have confirmed that the novel peptides can promote the dissolution of existing fibrils. The ability of the peptide AMY-1 to dissolve preformed fibrils was assessed with both scanning probe microscopy (SPM) and transmission electron microscopy (TEM). […] A twisting appeared in the middle of the length of the fibril, as if the AMY-1 peptide was interpolating into it.

[7] = adsorbed on hydrophilic surface (mica or muscovite), β-Amyloid1-40

KLVFF
self-aggregation (literature) [1]: aggregate and form insoluble precipitates | protective effect against Aβ toxicity [2]: protective effect against Aβ toxicity

Lys-Dibg-Val-Dbzg-Phe-Dpg-(Lys)6-NH2 [AMY-1]
fibril formation after long incubation with Aβ1-40 ([3]; 4.5 month-incubation, preliminary, data not shown): no massive fibrils were formed | product of the interaction with Aβ1-40 ([3]; data not shown): small, non-fibril aggregate | concentration at which the peptide inhibits aggregation [4]: ~5 µM | self-aggregation [5]: does not aggregate with itself | effect on preformed fibrils, SPM image ([6]; SPM at 10×10 μm^2, on mica): less adsorbed Aβ protein on mica | effect on preformed fibrils, TEM ([6]; preformed β-amyloid, TEM): the fibrillar structures were substantially frayed

(Lys)7-Dibg-Val-Dbzg-Phe-Dpg-NH2 (KKKKKKK[Dibg]V[Dbzg]F[Dpg]-NH2; N-terminus assumed; SMILES CCCC(CCC)(NC(=O)[C@H](Cc1ccccc1)NC(=O)C(Cc1ccccc1)(Cc1ccccc1)NC(=O)[C@@H](NC(=O)C(CC(C)C)(CC(C)C)NC(=O)[C@H](CCCCN)NC(=O)[C@H](CCCCN)NC(=O)[C@H](CCCCN)NC(=O)[C@H](CCCCN)NC(=O)[C@H](CCCCN)NC(=O)[C@H](CCCCN)NC(=O)[C@@H](N)CCCCN)C(C)C)C(N)=O) [AMY-2]
fibril formation (later aggregation study, image) ([3]; 1:1 ratio of 50 μM β-Amyloid and peptide): no fibril formation | visual appearance of the solution ([3]; added to β-amyloid at 1:1 ratio, 50 μM each, room temperature): the solution rapidly turned opaque | height of the non-fibrillar aggregates (SPM) [3, 7]: ~100 nm | morphology of the interaction product (SPM images) [3, 7]: large, amorphous aggregates | product of the interaction with Aβ1-40 ([3]; data not shown): large, non-fibril aggregate | concentration at which the peptide self-aggregates ([5]; preliminary studies, data not shown): 50 µM

KLVF (listed as Homo sapiens)
protective effect against Aβ toxicity [2]: protective effect against Aβ toxicity
